Assay results taken from doi:10.64898/2025.12.16.694593 (bioRxiv, 2025).

T1: Mtb Ku (from Ku-HIS, TEV-cleaved) (Mycobacterium tuberculosis, UniProt A5U0X7 1-273)
T1 sequence: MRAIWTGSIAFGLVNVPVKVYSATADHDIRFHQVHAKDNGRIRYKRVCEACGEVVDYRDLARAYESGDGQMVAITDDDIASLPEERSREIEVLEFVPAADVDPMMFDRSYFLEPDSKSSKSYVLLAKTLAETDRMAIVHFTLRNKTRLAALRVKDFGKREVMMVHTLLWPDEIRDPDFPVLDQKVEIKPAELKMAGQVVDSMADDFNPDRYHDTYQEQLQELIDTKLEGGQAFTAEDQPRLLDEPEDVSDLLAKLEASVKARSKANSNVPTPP

T2: Mtb Ku released from RFP-Ku by TEV (Mycobacterium tuberculosis, UniProt A5U0X7 1-273)
T2 sequence: T1 sequence

B1: 32/20dT DNA (called 30 bp/20 dT in legends) (dsDNA)
DNA 1: GCCCTGCTGCCGACCAACGATGGTTACATTCC
DNA 2: GGAATGTAACCATCGTTGGTCGGCAGCAGGGCTTTTTTTTTTTTTTTTTTTT
B2: 50 bp blunt end (dsDNA)
DNA 1: GCTAAGTCATCGTCTGTCGATCGATCTCTCGAGTAGTACAGGTCTAGAGG
DNA 2: CCTCTAGACCTGTACTACTCGAGAGATCGATCGACAGACGATGACTTAGC

Experiments:
[1] = target: T1, Mtb Ku (from Ku-HIS, TEV-cleaved); assay: EMSA
[2] = target: T2, Mtb Ku released from RFP-Ku by TEV; assay: EMSA

| Binder | binding result [1] | binding result [2] |
| --- | --- | --- |
| B1 | binds | binds |
| B2 | binds |  |
